B1: 256C3D3 (antibody, V domains shown)
VH: QAYLQQSGAELVRSGASVKMSCKASGYAFTSHNMHWVKQTPGQGLEWIGYISPGNGYTNYNQKFRGKATLTADTSSSTAYMQIGSLTSEDSAVYFCTRDYYGNSFAYWGQGTLVTVSA
VL: DIVMTQSPSSLTEKAGERVSMSCKSSQSLFNSGNQKNYLTWYQQKPGQPPKLLIYWASTRESGVPDRFTGSGSGTDFTLTISSVQAEDLAVYYCQNNYWFPFTFGAGTKLELK
B2: 267H5F12 (antibody, V domains shown)
VH: QAYLQQSGAELVRSGASVKMSCKASGYTFTSHNMHWVKQTPGQGLEWIGYISPGNGYTNYNQKFRGKATLTADTSSSTAYMQISSLTSEDSAVYFCTRDYYGNSFTYWGQGTLVTVSA
VL: DIVMTQSPSSLTEKAGERVSMSCKSSQSLFNSGNQKNYLTWYQQKPGQPPKLLIYWASTRESGVPDRFTGSGSGTEFTLTISSVQAEDLAVYYCQNNYWFPFTFGAGTKLELK
B3: 265E6G2 (antibody, V domains shown)
VH: QAYLQQSGAELVRSGASVKMSCKASGYTFTSYNMHWVKQTPGQGLEWIGYIYPGNGGTNYNQKFKGKATLTADTSSSTAYMQISSLTSEDSAVYFCARDYYGNSFAYWGQGTLVTVSA
VL: DLVMTQSPSSLTVTAGEKVTMSCKSSQSLLNSGNQKNYLTWYQQKPGQPPKLLIYWASTRESGVPDRFTGSGSGTDFTLTISNIQAEDLAVYYCQNDYSYPLPFGAGTKLELR
B4: 260F8A6 (antibody, V domains shown)
VH: QAYLQQSGAELVRSGASVKMSCRASGYTFTSHNMHWVKQTPGQGLEWIGYIYPGNGNTYYNQKFKGKATLTADTSSNTAYMQINSLTSEDSAVYFCVRDYYGNSFVYWGQGTLVTVSA
VL: DVVMTQSPSSLTEKTGEKVSMSCKSSQSLLNSGNQKNYLTWYQQKPGQPPKLLIYWASTRESGVPDRFIGSGSGTDFTLTISSLQTEDLAVYYCQNNYMYPFTFGAGTKLELK
B5: 258D11C4 (antibody, V domains shown)
VH: QAYLQQSGAELVRSGASVKMSCKASGYTFSSHNMHWVKQTPGQGLEWIGYIYPGNGGTNYNQKFKGKATLTADTSSSTAYMQISSLTSEDSAVYFCTRDYYGNSFAYWGQGTLVTVSA
VL: DIVMTQSPSSLTEKAGERVSMSCKSSQSLFNSGNQKNYLTWYQQKPGQPPKLLIYWASTRQSGVPDRFTGSGSGTDFTLTISSVQAEDLAVYYCQNDYWFPFTFGAGTKLELK
B6: 262H9H6 (antibody, V domains shown)
VH: QAYLQQSGAELVRSGASVKMSCKASGYTFTSHNMHWVKQTPGQGLEWIGYISPGNGYTNYNQKFRGKATLTADTSSSTAYMQISSLTSEDSAVYFCTRDYYGNSFTYWGQGTLVTVSA
VL: DIVMTQSPSSLTEKAGERVSMSCKSSQSLFNSGNQKNYLTWYQQKPGQPPKLLIYWASTRESGVPDRFTGSGSGTEFTLTISSVQAEDLAVYYCQNNYWFPFTFGAGTKLELK
B7: 257G7F7 (antibody, V domains shown)
VH: QAYLQQSGAELVRSGASVKMSCKASGYTFTSHNLHWVKQTPGQGLEWIGYIYPGNGNTNYNQKFKGKATLTADTSSSTAYMQISSLTSEDSAVYFCTRDYYGNSFAYWGQGTLVTVSA
VL: DIVMTQSPSSLTEKAGERVSMSCKSSQSLFNSGNQKNYLTWYQQKPGQPPKLLIYWASTRESGVPDRFTGSGSGTDFTLTISSVQAEDLAVYYCQNNYWFPFTFGAGTKLELK
B8: 260G9E8 (antibody, V domains shown)
VH: QADLQQSGAELVRSGASVKMSCKASGYTFASHNMHWVKQTPGQGLEWIGYIYPGNGGTKYNQKFTGKATLTADTSSSTAYMQITSLTSEDSAVYFCARDYYGNSFAYWGQGTLVTVSA
VL: DIVMTQSPSSLTEKAGEKVSMRCKSSQSLLNSGNQKNYLTWYQQKPGQPPKLLIYWASTRESGVPDRFTGSGSGTDFTLTISSVQADDLAVYYCQNDYMFPFTFGAGTKLELK
B9: 257F1E11 (antibody, V domains shown)
VH: QAYLQQSGAELVRSGASVKMSCKASGYTFTSHNIHWVKQTPRQGLEWIGYIYPGNGGTNYNQKFKGKATLTADTSSSTAYMQISSLTSEDSAVYFCTRDYYGNSFAYWGQGTLVTVSA
VL: DIVMTQSPSSLTEKAGERVSMSCKSSQSLFNSGNQKNYLTWYQQKPGQPPKLLIYWASTRESGVPDRFTGSGSGTDFTLTISSVQAEDLAIYYCQNDYWYPFTFGAGTKLELK
B10: 275H9A2 (antibody, V domains shown)
VH: QAYLQQSGAELVRSGASVKMSCRASGYSFTSHNMHWVKQTPGQGLEWIGYIYPGNGGSYYNQKFKGKAILTADTSSSTAYMQISSLTSEDSAVYFCTRDYYGNSFVYWGQGTLVTVSA
VL: DVVMTQSPSSLTEKTGEKVSMSCKSSQSLLNSGNQKNYLTWYQQKPGQPPKLLIYWASTRESGVPDRFTGSGSGTDFTLTISSLQTEDLAVYYCQNNFRYPFTFGAGTKLELK
B11: 257G7B9 (antibody, V domains shown)
VH: QAYLQQSGAELVRSGASVKMSCKASGYTFTSHNLHWVKQTPGQGLEWIGYIYPGNGNTNYNQKFKGKATLTADTSSSTAYMQISSLTSEDSAVYFCTRDYYGNSFAYWGQGTLVTVSA
VL: DIVMTQSPSSLTEKAGERVSMSCKSSQSLFNSGNQKNYLTWYQQKPGQPPKLLIYWASTRESGVPDRFTGSGSGTDFTLTISSVQAEDLAVYYCQNNYWFPFTFGAGTKLELK
B12: 257B1G9 (antibody, V domains shown)
VH: QAYLQQSGAELVRSGASVKMSCKASGYTFTSHNMHWVKQTPGQGLEWIGYIYPGNGGTNYNQKFKGKATLTADTSSSTAYMQISSLTSEDSAVYFCTRDYYGNSFAYWGQGTLVTVSA
VL: DIVMTQSPSSLTERAGERVSMSCKSSQSLFNSGNQKNYLTWYQQKPGQPPKLLIYWASTRESGVPDRFTGSGSGTDFTLTISSVQAEDLAVYYCQNDYRYPFTFGAGTKLELK
B13: 263E9F3 (antibody, V domains shown)
VH: EIQVQQSGPELMKPGASVKISCRSSGYSFTSYYIHWVKQSRGKSLEWIGYIDPFSGGTRYNQKFEGKATLTVDKSSTTAYMHLSSLTSEDSAVYYCASLRFFAYWGQGTLVTVSA
VL: DIVMTQSPSSLTVTAGEKVTMTCKSSQSLLNSGNQENYLTWYQQKPGQPPELLISRASTRQSGVPDRFTGSGSGTDFTLTISSVQTEDLAVYYCQNDYSYPLTFGAGTKLELK
B14: 194A2F7 (antibody, V domains shown)
VH: QIQLVQSGPELKKPGETVKISCKASGYTFTDYLIHWVKQAPGKGLKWMGWINTETGEPTYADDFKGRFALSLETSASTACLQINNLKNEDTATYFCARIYYGNSFDYWGQGTTLTVSS
VL: DIVMTQSPSSLPVTAGEKVTMTCKSSQNLLNSGNQKSYLTWYQQKPGQPPKLLIYWASTRETGVPDRFTGSGSGTDFTLTISSVQAEDLAVYYCQNAYRFPFTFGAGTRLELK
B15: 259B4D4 (antibody, V domains shown)
VH: EIQLQQSGPELMKPGASVRISCKASGYSFTSYYMHWMKQSHVKSLEWIGYIDPFNGNTRYNQKFKDKATLTVDKSSTTAYMHLSSLTSEDSAVYFCASLRFFAYWGQGTLVTVSA
VL: DIVMTQSPSSLTVTAGEKVTMSCNSSQSLLNSGNQKNYLTWYQQKPGQPPKLLIYWASSRESGVPDRFTGSGSGTDFTLTISTVQAEDLAVYYCQNDYSFPLTFGAGTRLELK
B16: 266B11F7 (antibody, V domains shown)
VH: QVQMKESGPGLVAPSQSLSITCTVSGFSLTTYGVTWVRQPPGKGLEWLGVIWGDGSTNYHSALTSRLRISKDKSKSQVFLKLSSLQTDDTATYYCAKPGRGNALDYWGQGTSVTVSS
VL: DIVMTQSPSSLTVTAGEKVTMRCKSSQSLLNSGNQKNYLTWYQQKPGQPPKLLVYWASTRESGVPDRFTGSGSGTDFTLTVSSVQAEDLAVYYCQNDYIFPLTFGAGTKLELK
B17: 273F3D4 (antibody, V domains shown)
VH: QVQLKESGPGLVAPSQSLSITCTVSGFALTTYGVSWVRQPPGKGLEWLGVIWGDGSTHYHSALISRLSIRKDNSKSQVFLKLNSLQTDDTATYYCAKPGRGNAMDYWGQGTSVTVSS
VL: DIVMSQSPSSLTVTAGEKVTMSCKSSQSLLNSGNQKNYLTWYQQKPGQSPKLLIYWASTRESGVPDRFTGSGSGTDFTLTISSMQAEDLAVYYCQNDYIYPLTFGAGTMLELK
B18: 267B2C5 (antibody, V domains shown)
VH: QVQLKESGPGLVAPSQSLAITCTVSGFSLTTYGVSWVRQPPGKGLEWLGVIWGDGSTHYHSALISRLSIRKDNSKSQVFLKVNSLQTDDTATYYCGKPGRGNAMDYWGQGTSVTVSS
VL: DIVMTQSPSSLTVTAGEKVTMSCKSSQSLLNSGNQKNYLTWYQQKPGQSPKLLIYWASTRESGVPDRFTGSGSGTDFTLTISSVQAEDLAVYYCQNDYIYPLTFGGGTTLELK
B19: 254A8D5 (antibody, V domains shown)
VH: EVMLVESGGGLVKPGGSLKLSCAASGFTFSSYTVSWVRQTPEKRLEWVATSIVGSTYTYFPDSVKGRFTISRDFAKNTLFLQMSSLRSEDTAMYYCSRLGRGNAMDYWGQGTSVSVSS
VL: DIVMTQSPSSLTVTAGEKVTLNCRSSQSLLNSGNQKNYLTWYQQKPGQPPKLLIYWASTRESGVPDRFTGSGSGTDFTLTISSVQADDLAVYYCQNGYSYPFTFGSGTKLEIK
B20: 275B2G2 (antibody, V domains shown)
VH: EVMLVESGGGLVKPGGSLKLSCAASGFTFRDYTMSWVRQTPEKRLEWVATSIIGGTYTYYPDSVKGRFTISRDNVKNTLYLQMSSLRSEDTAMYYCSRLGRGNAMDYWGQGTSVTVSS
VL: DIVMTQSPSSLTVTAGEKVTMSCKSSQSLLNSGNQKNYLTWYQQKPGQPPKLLIYWASTRESGVPDRFTGSGSGTDFTLTISSVQAEDLAVYYCQNDYSYPFTFGSGTKLEIK
B21: 273C10E5 (antibody, V domains shown)
VH: QVQLQQSGAELVKPGASVKLSCKASGYTFTSFGINWLRQRPEQGLEWIGWIFPGDGNSKYNENFKGKATLTTDKSSSTAYMQVTRLTSEDSAVYFCARFYYGNSFANWGQGTLVTVSA
VL: DIVMTQSPSSLTVTAGEKVTMSCKSSQSLLNSGNQKNYLTWYQQKPGQPPKLLIYWAATRESGVPDRFAGSGSGTDFTLTISSVQAEDLAVYYCQNDYFYPFTFGAGTKLELK

The test has as its target Claudin18.2-His protein (human). The experiment in a line: indirect ELISA on coated Claudin18.2-His.
In the case of B1, the EC50 came out at 0.0133 µg/mL.
For B2, the EC50 was 0.00822 µg/mL.
As to B3, the concentration for a half-maximal effect (EC50) was determined as 0.0183 µg/mL.
In the case of B4 it was 0.0151 µg/mL; in that of B5, 0.0153 µg/mL.
Regarding B6, the concentration for a half-maximal effect (EC50) was 0.014 µg/mL.
Regarding B7, the EC50 came out at 0.0198 µg/mL.
As for B8, the figure is 0.0358 µg/mL; as for B9, 0.0262 µg/mL.
In the case of B10 it was 0.0245 µg/mL; in that of B11, 0.00978 µg/mL; in that of B12, 0.00793 µg/mL.
Consider B13, for which the EC50 is 0.0113 µg/mL.
In the case of B14 it was 0.0438 µg/mL; in that of B15, 0.0197 µg/mL.
Take B16: the concentration giving a half-maximal response (EC50) amounted to 0.0168 µg/mL. This EC50 and that of the molecule before are within 1.5-fold of each other.
As for B17, the figure is 0.0233 µg/mL; as for B18, 0.0113 µg/mL.
B19: the EC50 turned out to be 0.0252 µg/mL.
As for B20, the figure is 0.028 µg/mL; as for B21, 0.0201 µg/mL.

Source of the values: patent publication US20220073643A1.
